# Test results as given in patent US20140242072A1, “ANTI-ICAM-1 ANTIBODIES TO TREAT MULTIPLE-MYELOMA RELATED DISORDERS” (BIOINVENT INTERNATIONAL AB, priority 2011, published 2014).
# B1: BI-AB antibody (antibody, V domains shown)
# VH: EVQLLESGGGLVQPGGSLRLSCAASGFTFSNAWMSWVRQAPGKGLEWVAFIWYDGSNKYYADSVKGRFTISRDNSKNTLYLQMNSLRAEDTAVYYCARYSGWYFDYWGQGTLVTVSS
# VL: QSVLTQPPSASGTPGQRVTISCTGSSSNIGAGYDVHWYQQLPGTAPKLLIYDNNNRPSGVPDRFSGSKSGTSASLAISGLRSEDEADYYCQSYDSSLSAWLFGGGTKLTVLG
# notes: It says the antibody was described previously in WO 2007/112110; also called exemplary antibody of the invention
# How the values were obtained:
# [1] = target: T1, ICAM-1 (BI-AB epitope) on cells from multiple-myeloma-related disorders (Homo sapiens, UniProt P05362); assay: BI-AB epitope expression on bone marrow cells of patients with multiple-myeloma-related disorders by flow cytometry; type: binding; conditions: FACS
# T1 construct: endogenous in cells; host or cells: primary bone marrow cells (plasma cells) from patients with plasmacytoma, plasma cell leukemia or light chain amyloidosis
# Description: FIG. 1: BI-AB epitope expression in a cohort of patients with plasma cell disorders, consecutively analysed at Lund University Hospital, Sweden. • Pat no (Patient number); M (male); F (female); Ig (immunoglobulin class of M-component); M comp (monoclonal Ig component in serum); Skel. destr (number of skeletal destruction as measured by X-ray); n/a (not available); MM-cells (cells from multiple-myeloma-related disorders counted as % of all nucleated cells in bone marrow smears); ISS (International Staging System of MM); T (number of different MM treatment regimes before BI-AB analysis); Diagnosis; AL (amyloid light chain amyloidosis); PCL (plasma cell leukemia); PC (plasmacytoma); Expression level (BI-AB epitope expression level measured by FACS on cells from multiple-myeloma-related disorders: +++ (very highly positive), ++ (highly positive), + (positive) or − (negative); Positive MM cells (BI-AB epitope positive cells from multiple-myeloma-related disorders as measured by FACS).
# We evaluated expression of the BI-AB epitope on bone marrow cells in patients with multiple-myeloma-related disorders (plasmacytoma, plasma cell leukemia, and light chain amyloidosis) by flow cytometry (FIG. 1).
# Cells from multiple-myeloma-related disorders were identified using fluorescent antibodies against the following surface antigens CD38, CD138, CD45 and CD56 according to European Myeloma Network guidelines on multiparametric flow cytometry in MM (Rawstron et al., 2008) and confirming monoclonal cells from multiple-myeloma-related disorders with intracellular staining of lambda and kappa light chains.
# [2] = target: T2, Intercellular Adhesion Molecule-1 (ICAM-1) (human, UniProt P05362 28-532); assay: flow cytometry (FACS) on bone marrow plasma cells of patients with PC, PCL or AL
# T2 construct: whole, on cells; Endogenous ICAM-1 on primary patient cells; also called CD54
# T2 sequence (P05362 28-532): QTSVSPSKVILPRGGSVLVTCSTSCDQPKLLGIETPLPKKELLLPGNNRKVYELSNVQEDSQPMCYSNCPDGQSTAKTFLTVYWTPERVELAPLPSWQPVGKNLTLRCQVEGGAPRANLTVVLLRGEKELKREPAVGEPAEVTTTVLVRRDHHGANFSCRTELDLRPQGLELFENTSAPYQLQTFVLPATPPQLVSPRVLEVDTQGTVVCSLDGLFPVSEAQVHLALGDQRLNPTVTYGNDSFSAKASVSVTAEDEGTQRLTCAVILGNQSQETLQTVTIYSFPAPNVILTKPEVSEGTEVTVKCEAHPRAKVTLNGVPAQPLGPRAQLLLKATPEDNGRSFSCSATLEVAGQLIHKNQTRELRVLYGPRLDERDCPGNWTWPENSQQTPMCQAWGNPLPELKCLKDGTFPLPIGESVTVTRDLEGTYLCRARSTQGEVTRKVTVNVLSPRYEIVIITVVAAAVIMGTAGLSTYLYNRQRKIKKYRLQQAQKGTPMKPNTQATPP
# T1 sequence (P05362 28-532): as above
molecule,measurement,setting,value
B1,BI-AB epitope positive cells from multiple-myeloma-related disorders,"[1]; all patients with plasmacytoma, plasma cell leukemia or light chain amyloidosis",expressed the BI-AB epitope on most cells
same,median BI-AB epitope expression level relative to normal B cells from the same patients,[1]; cells from multiple-myeloma-related disorders vs normal B cells,10 times higher
same,BI-AB epitope expression level on cells from multiple-myeloma-related disorders,[1]; patient bone marrow cells,very highly expressed
same,binding result,[2],binds
